The values that follow are results of earlier work, collected in paper PMC9008539.

This data set deals with PfRh5 (Plasmodium falciparum) (UniProt Q8IFM5).
PfRh5 (Plasmodium falciparum), sequence (Q8IFM5 25-526): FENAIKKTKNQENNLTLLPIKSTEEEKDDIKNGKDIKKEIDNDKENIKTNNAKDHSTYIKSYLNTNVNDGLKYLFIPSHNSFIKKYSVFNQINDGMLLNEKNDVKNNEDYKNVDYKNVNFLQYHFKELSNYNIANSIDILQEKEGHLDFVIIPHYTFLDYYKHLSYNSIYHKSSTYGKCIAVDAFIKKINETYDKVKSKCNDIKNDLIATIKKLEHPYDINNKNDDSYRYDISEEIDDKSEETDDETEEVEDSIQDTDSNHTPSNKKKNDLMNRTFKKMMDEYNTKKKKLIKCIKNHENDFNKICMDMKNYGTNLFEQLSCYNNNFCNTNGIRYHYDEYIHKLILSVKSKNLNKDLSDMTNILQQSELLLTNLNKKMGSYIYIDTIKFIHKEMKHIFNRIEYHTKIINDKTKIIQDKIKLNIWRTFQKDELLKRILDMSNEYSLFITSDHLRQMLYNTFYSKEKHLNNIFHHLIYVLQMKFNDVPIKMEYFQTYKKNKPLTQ

As usually defined, the Kd is the concentration at which binding is half-saturated. For the substance PfRipr (from UniProt O97302), the Kd was 0.48 nM.
